Results as given in patent publication CN117083298A (CENTOCOR ORTHO BIOTECH INC, dated 2023).

B1: PT1B545 (antibody, mouse IgG2a, kappa, V domains shown)
VH: QVQLQQPGAELVKPGASVKMSCKASGYTFTSYWITWVKQRPGQGLEWIGDIHPGRGSTKSNEKFKSKATLTVDTSSSTAYMQFSSLTSEDSAVYYCARRWGFDYWGQGTTLTVSS
VL: DIVITQDELSNPVTSGESVSISCRSSKSLLYKDGKTYLNWFLQRPGQSPQLLIYLMSTRASGVSDRFSGSGSGTDFTLEISRVKAEDVGVYYCQQLVDYPLTFGAGTKLELKR
notes: Parental mouse mAb; also called PT/66; 亲本mAb PT/66
B2: PT1B1183 (antibody, human IgG1, kappa, V domains shown)
VH: QVQLVQSGAEVKKPGASVKVSCKASGYTFTSYWITWVRQRPGQGLEWMGDIHPGRGSTKYAQKLQGRVTMTTDTSTSTAYMELRSLRSDDTAVYYCARRWGFDYWGQGTLVTVSS
VL: DIVMTQTPLSSPVTLGQPASISCRSSKSLLYKDGKTYLNWFQQRPGQSPRLLIYLMSTRASGVPDRFSGSGAGTDFTLKISRVEAEDVGVYYCQQLVDYPLTFGQGTKLEIKR
notes: Humanised antibody obtained from PT1B1153 by modifying framework region 2 of the light chain

How the values were obtained:
人全长重组tau(2N4R) [1] = target: T1, 人全长重组tau(2N4R) (human, UniProt P10636 2-758); assay: SPR, Biacore T200, 25 °C, mAb captured by anti-Fc on a CM4 chip, tau as analyte, 1:1 Langmuir fit
T1 construct: also called human full-length recombinant tau; 全长重组Tau蛋白
T1 sequence (P10636 other isoform, or with tags, fused parts or gaps limits assumed): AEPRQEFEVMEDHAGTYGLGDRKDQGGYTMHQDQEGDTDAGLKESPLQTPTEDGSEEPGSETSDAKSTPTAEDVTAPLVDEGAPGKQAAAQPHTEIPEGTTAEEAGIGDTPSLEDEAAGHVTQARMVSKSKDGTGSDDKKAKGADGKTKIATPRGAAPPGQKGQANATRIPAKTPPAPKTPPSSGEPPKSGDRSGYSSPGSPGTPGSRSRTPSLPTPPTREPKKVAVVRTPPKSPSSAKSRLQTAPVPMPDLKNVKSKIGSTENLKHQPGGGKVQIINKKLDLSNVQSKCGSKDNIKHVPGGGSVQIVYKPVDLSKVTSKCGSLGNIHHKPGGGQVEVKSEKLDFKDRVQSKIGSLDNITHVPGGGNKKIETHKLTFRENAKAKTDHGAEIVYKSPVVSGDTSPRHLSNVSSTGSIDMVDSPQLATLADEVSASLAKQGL

人全长重组tau(2N4R) [2] = target: T1, 人全长重组tau(2N4R); assay: SPR, single-cycle kinetics

| Binder | binding result (人全长重组tau(2N4R) [1]) | binding result (人全长重组tau(2N4R) [2]) |
| --- | --- | --- |
| B1 | binds | – |
| B2 | – | binds |
